Source: article PMC7111318

Target: Echo 6 virus full particle (strain SJZ-366) (Echovirus 6 strain SJZ-366)
Test: SPR

Substance	Kd [nM]
Human CD55 soluble protein (extracellular domain) (from UniProt P08174-1 35-285) (domain or fragment)	375
Human FcRn soluble protein (FCGRT extracellular domain + β2 m) (from UniProt P61769 21-119) (complex)	242
